Numbering of substitutions follows the chain as printed. In names and notes the source's numbering stands. Values belong to the binder of their own block, whether it stands above or below them.
Tests used:
[1] = target: human CD3 on human T cells (human) (UniProt P07766); assay: competition with AF488 SP-34 tracer on human pan T cells, flow cytometry
[2] = target: human CD3 on human T cells (human) (UniProt P07766); assay: Kd = IC50/(1+[T]/KdT) from competition with AF488 SP-34 on human pan T cells
[3] = target: recombinant human CD3ε (1-27) peptide with a C-terminal Tencon25 fusion (human) (UniProt P07766); assay: ProteOn SPR, mAb captured by anti-human Fc, antigen as analyte
Chain of recombinant human CD3ε (1-27) peptide with a C-terminal Tencon25 fusion (human) (P07766 22-48): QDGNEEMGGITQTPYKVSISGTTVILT

Chain of human CD3 on human T cells (human) (P07766 23-207 limits assumed): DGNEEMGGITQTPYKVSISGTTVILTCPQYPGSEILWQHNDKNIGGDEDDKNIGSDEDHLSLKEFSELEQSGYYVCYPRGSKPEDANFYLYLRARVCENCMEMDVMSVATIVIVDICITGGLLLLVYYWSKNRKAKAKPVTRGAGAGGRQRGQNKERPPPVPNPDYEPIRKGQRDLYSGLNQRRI

IC50 [1]: 409 nM
Kd [2]: 103 nM
B1: monovalent CD3B376 construct (bispecific antibody, part only; not given: unnamed target arm, not shown: another chain or arm of the molecule; small tags and cut ends)
heavy: QVQLQQSGPRLVRPSQTLSLTCAISGDSVFNNNAAWSWIRQSPSRGLEWLGRTYYRSKWLYDYAVSVKSRITVNPDTSRNQFTLQLNSVTPEDTALYYCARGYSSSFDYWGQGTLVTVSSASTKGPSVFPLAPCSRSTSESTAALGCLVKDYFPEPVTVSWNSGALTSGVHTFPAVLQSSGLYSLSSVVTVPSSSLGTKTYTCNVDHKPSNTKVDKRVESKYGPPCPPCPAPEAAGGPSVFLFPPKPKDTLMISRTPEVTCVVVDVSQEDPEVQFNWYVDGVEVHNAKTKPREEQFNSTYRVVSVLTVLHQDWLNGKEYKCKVSNKGLPSSIEKTISKAKGQPREPQVYTLPPSQEEMTKNQVSLTCLVKGFYPSDIAVEWESNGQPENNYKTTPPVLDSDGSFLLYSKLTVDKSRWQEGNVFSCSVMHEALHNHYTQKSLSLSLGK
light: QSALTQPASVSGSPGQSITISCTGTSSNIGTYKFVSWYQQHPDKAPKVLLYEVSKRPSGVSSRFSGSKSGNTASLTISGLQAEDQADYHCVSYAGSGTLLFGGGTKLTVLGQPKAAPSVTLFPPSSEELQANKATLVCLISDFYPGAVTVAWKADSSPVKAGVETTTPSKQSNNKYAASSYLSLTPEQWKSHRSYSCQVTHEGSTVEKTVAPTECS

IC50 [1]: 1010 nM
Kd [2]: 254 nM
B2: monovalent CD3B450 construct (bispecific antibody, part only; not given: unnamed target arm, not shown: another chain or arm of the molecule; small tags and cut ends)
heavy: B1 heavy with R10G, R13K, V73I, R79K, T83S, L96V
light: B1 light with D43G, L49M, L50I, S62N, Q85E, H89Y

Kd [3]: 20.6 nM
koff [3]: 0.00187 s⁻¹
kon [3]: 90800 M⁻¹ s⁻¹
B3: CD3B312 (antibody, V domains shown)
VH: QVQLQQSGPRLVRPSQTLSLTCAISGDSVFNNNAAWSWIRQSPSRGLEWLGRTYYRSKWLYDYAVSVKSRITVNPDTSRNQFTLQLNSVTPEDTALYYCARGYSSSFDYWGQGTLVTVSS
VL: QSALTQPASVSGSPGQSITISCTGTSSNIGTYKFVSWYQQHPDKAPKVLLYEVSKRPSGVSSRFSGSKSGNTASLTISGLQAEDQADYHCCSYAGSGTLLFGGGTKLTVL

Kd [3]: 23.3 nM
koff [3]: 0.00237 s⁻¹
kon [3]: 102000 M⁻¹ s⁻¹
B4: CD3B376 (antibody, human IgG4 S228P, lambda, F234A L235A, V domains shown)
VH: B3 VH
VL: QSALTQPASVSGSPGQSITISCTGTSSNIGTYKFVSWYQQHPDKAPKVLLYEVSKRPSGVSSRFSGSKSGNTASLTISGLQAEDQADYHCVSYAGSGTLLFGGGTKLTVLG

Kd [3]: 41.1 nM
koff [3]: 0.00405 s⁻¹
kon [3]: 98400 M⁻¹ s⁻¹
B5: BLW-2E6 variant CD3H219/CD3L160 (LC C91L) (antibody, V domains shown)
VH: B3 VH
VL: B3 VL with C91L

Kd [3]: 32.9 nM
koff [3]: 0.00202 s⁻¹
kon [3]: 61300 M⁻¹ s⁻¹
B6: BLW-2E6 variant CD3H219/CD3L137 (antibody, V domains shown)
VH: B3 VH
VL: B3 VL with D43G, L49M, L50I, S62N, Q85E, H89Y

Source: US20230322924A1
